Reference: the Immune Epitope Database (IEDB)

target: HLA-A*02:01; experiment: IEDB peptide-MHC binding, purified MHC/competitive/fluorescence; ≥ and ≤ were set here for values at or beyond the usual limits of such assays; settings: source organism: Homo sapiens

Sequence	IC50
AAAFVNQHL	5.02 µM
AAAFVNQHLC	≥ 100 µM
AAFVNQHLCG	≥ 100 µM
AEDLQVGQV	≥ 100 µM
AEDLQVGQVE	≥ 100 µM
AFVNQHLCG	≥ 100 µM
AFVNQHLCGS	≥ 100 µM
AGSLQPLAL	≥ 100 µM
AGSLQPLALE	≥ 100 µM
ALLALWGPD	≥ 100 µM
ALWGPDPAA	0.88 µM
CCTSICSLY	≥ 100 µM
CCTSICSLYQ	≥ 100 µM
CTSICSLYQ	≥ 100 µM
CTSICSLYQL	≥ 97.7 µM
DLQVGQVEL	≥ 100 µM
DLQVGQVELG	≥ 100 µM
DPAAAFVNQ	≥ 100 µM
DPAAAFVNQH	≥ 100 µM
EAEDLQVGQ	≥ 100 µM
EDLQVGQVE	≥ 100 µM
EDLQVGQVEL	≥ 100 µM
ELGGGPGAG	≥ 100 µM
ELGGGPGAGS	≥ 100 µM

Sequence	IC50
EQCCTSICS	≥ 100 µM
EQCCTSICSL	≥ 100 µM
ERGFFYTPK	≥ 100 µM
GAGSLQPLAL	≥ 100 µM
GGGPGAGSL	≥ 100 µM
GGGPGAGSLQ	≥ 100 µM
GGPGAGSLQ	≥ 100 µM
GGPGAGSLQP	≥ 100 µM
GIVEQCCTS	≥ 100 µM
GPDPAAAFV	≥ 100 µM
GPDPAAAFVN	≥ 100 µM
GPGAGSLQP	≥ 100 µM
GQVELGGGP	≥ 100 µM
GQVELGGGPG	≥ 100 µM
GSLQPLALE	≥ 100 µM
GSLQPLALEG	≥ 100 µM
ICSLYQLEN	≥ 100 µM
ICSLYQLENY	≥ 100 µM
IVEQCCTSI	≥ 100 µM
LALEGSLQK	≥ 100 µM
LALLALWGP	≥ 100 µM
LALWGPDPA	≥ 100 µM
LGGGPGAGS	≥ 100 µM
LGGGPGAGSL	≥ 100 µM

Sequence	IC50
LLALLALWG	≥ 100 µM
LLALLALWGP	29.6 µM
LLALWGPDPA	1.96 µM
LLPLLALLA	1.37 µM
LLPLLALLAL	5.84 µM
LPLLALLAL	11.8 µM
LPLLALLALW	≥ 100 µM
LQPLALEGS	≥ 100 µM
LQPLALEGSL	≥ 100 µM
LQVGQVELG	≥ 100 µM
LQVGQVELGG	≥ 100 µM
LWGPDPAAA	≥ 100 µM
LWGPDPAAAF	≥ 100 µM
LYQLENYCN	≥ 100 µM
PAAAFVNQH	≥ 100 µM
PAAAFVNQHL	≥ 100 µM
PDPAAAFVN	≥ 100 µM
PDPAAAFVNQ	≥ 100 µM
PGAGSLQPL	≥ 100 µM
PGAGSLQPLA	≥ 100 µM
PLALEGSLQ	≥ 100 µM
PLALEGSLQK	≥ 100 µM
PLLALLALW	≥ 100 µM
PLLALLALWG	43.5 µM

Sequence	IC50
QCCTSICSLY	≥ 100 µM
QPLALEGSL	≥ 100 µM
QPLALEGSLQ	≥ 100 µM
QVELGGGPG	≥ 100 µM
QVELGGGPGA	≥ 100 µM
QVGQVELGG	≥ 100 µM
QVGQVELGGG	≥ 100 µM
SICSLYQLE	≥ 100 µM
SICSLYQLEN	≥ 100 µM
SLQPLALEGS	≥ 88 µM
SLYQLENYCN	≥ 100 µM
TSICSLYQL	≥ 100 µM
TSICSLYQLE	≥ 100 µM
VELGGGPGA	≥ 100 µM
VELGGGPGAG	≥ 100 µM
VEQCCTSIC	≥ 100 µM
VEQCCTSICS	≥ 100 µM
VGQVELGGG	≥ 100 µM
VGQVELGGGP	≥ 100 µM
WGPDPAAAF	≥ 100 µM
WGPDPAAAFV	4.46 µM
